Experimental data as given in PMC7864055, “Biochemical and biophysical analyses of hypoxia sensing prolyl hydroxylases from Dictyostelium discoideum and Toxoplasma gondii” (The Journal of Biological Chemistry, 2021).

Substrate: O=C(O)CCC(=O)C(=O)O
Test: RapidFire SPE-MS of Skp1 hydroxylation, Michaelis-Menten fit
Assay type: biochemical, Dictyostelium discoideum
Conditions: cosubstrate, full-length DdSkp1 100 μM, Fe(II) 50 μM, L-ascorbate 1 mM, HEPES pH 7.6, 37 °C, atmospheric O2
Description: RapidFire SPE-MS of Skp1 hydroxylation, Michaelis-Menten fit on DdPhyA

B1: DdPhyA (Dictyostelium discoideum) (protein)
chain: MDISNLPPHIRQQILGLISKPQQNNDESSSSNNKNNLINNEKVSNVLIDLTSNLKIENFKIFNKESLNQLEKKGYLIIDNFLNDLNKINLIYDESYNQFKENKLIEAGMNKGTDKWKDKSIRGDYIQWIHRDSNSRIQDKDLSSTIRNINYLLDKLDLIKNEFDNVIPNFNSIKTQTQLAVYLNGGRYIKHRDSFYSSESLTISRRITMIYYVNKDWKKGDGGELRLYTNNPNNTNQKELKQTEEFIDIEPIADRLLIFLSPFLEHEVLQCNFEPRIAITTWIY
notes: full-length aa 1-284, E. coli BL21 Gold (DE3), N-terminal His6-ZBasic tag cleaved by TEV, EDTA-treated to remove metal
B1 was tested, and the Km was 36 ± 6 µM.
